A short description of this data set: label from the status in PepcDB records.
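Note: failed if final PepcDB status was selected cloned or expressed and not failed if soluble or beyond.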

“MSDDDDIQYIKRQRTLHYGSLEESERKRQNAAASGAAATTTSGTTASSGAGTTTTGTGGQLEDIDSDEDYEESTKKTSNAKQAGAPPPTAATLANKIDDDYFDLEMEMERDKVALLEEFERKKRARQINVSTDDTEIKSNLRQLNEPICYFGEGPAERRRRLKELLAGLGENAINKRQYEDEERKQQQREQDQATWYHEGPDSLRIARLWLADYSLPRAKDRLVRAREALEVPSAARAGRMVEMQKKLQSLAPLCSQVGDTRPVSSAAFSEDSSLLLTSSWSGLCKLWSVPDCELKQTLRGHASYVGGVALRPGVKADEENVVAMASGGHDGAVKLWGFNNEESIADITGHMPHRVSKVAFHPSGRFLATACYDSSWRLWDLEQKTEVLHQEGHAKPVHCLSYHSDGSVLVTGGLDAFGRVWDLRTGRCIMFLEGHLGAVFGVDFSPNGFHIATGSQDNTCKIWDLRRRQPVYTIPAHTNLISDVKYQQECGSFLVTCSYDSTTKIWSNKTWQPLKTLQGHDNKVISVDIAPNSQYIATTSFDRTFKLWSPDS”: the protein production result is “failed”.
“MSDDLMHEPDAAQAILPPGFLKNPVHLLAFGFGSGAAPRAPGTWGSLAAIPLWYAFSWLPPAAYWLVVLAAFLVGIWLCGKTAADLKVHDHGGIVWDEFVGMWIALGLFPDQLYGVLMAFMLFRLFDVWKPWPINWLDERLPGGLGIMVDDVVAGAMALGCLWAIDVWVMPYIV”: the protein production result is reported as “failed”.
Then “MSDELSDRVAQYLRWQVSDKVALLAQRYPDDTSLTLDWTDLARWDPTLAEDILDAPDSMLEYVERGIRDTPLPVDTSLGQATPRFENLPESHTTAPGEFSPSDRRGQLLALEGQVAKRTQVQPRLVEAAFECQRCGTLTRIPFEPGQFIEPFECVGCETKGPFRINPDQSRYEDYQKLLLENPSSAALGGDTSDIIAHLQGDLAGHGAIANCQDVVLVGELQFRGGGPIPEPQVVVNSVQAAGQTYQDAEFTADQRDLFERLRERPESFDVDIEDPSTADVLMAAAAPKFVSGSHPRDRQVVRGLVLQLVSASTFDGPDGSHYRGDVHVLLPGDPGTGKSVLAKWAAAVAPRSAFASGERVSGPGLTAAAVKDDFSDGGFSIEPGVLVRAHEGIAVVDELDKAGDDAIEKMHSALADQILPLSLGGQSMTLPAECGLLGVCNPLGGHFAGDESLVDALGINSPLLSRFDLIMQMRSKQDREHVRELAESMIRTWSASLKDATGQALDTADADTIDPVLSMDQYRAVLLRARQLHPTPANDRVIEALAAWFEEQKMALPERYRDALADADGQYHGPPVPVTARKLGAARRVAQAAARANLREEITMADVEVAKELVSRSLADLDIPIVHNAGLGGGDVNRREPADLSGVS”, with “failed”; and “MSDEQHDSVWPPPGLDFSKPTIARVYDALLGGKDNFEADRALADYACKHIPGLKESAIENRKVLVRGVRFLAGEAGISQFLDLGSGLPTVQNTHEVAQSVNPDARVVYVDIDPMVLTHGRALLAKDPNTAVFTADVRDPEYILNHPDVRRMIDFSRPAAIMLVGMLHYLSPDVVDRVVGAYRDALAPGSYLFMTSLVDTGLPAQQKLARITRENLGEGWARTPEEIERQFGDFELVEPGVVYTALWRPDEPVDPDNLSPGEQLGMAGIGRKKA”, with “not failed”.
Then “MSDFGILSLLPPLVAIVLAIWTKRVVFALFSGVWIGGVMAANWNPITGTIKTFEWIIQNVTNSWNATILVFDFLIGAGVGLIYKSGGVHAVANAITKRIKTSRDASLLGWLLGVLIFFDDYTNTIIVGNTMRPITDKMRVSREMLAYIDDSTAAPVAGIAIVSTWIGYELGLIKEAFEKLHITMGEYYAWLHSVPYRFYSIFAIILVFIVAYTHRHYGAMLKAEMRARTTGKVVRDDAKPLMATESDLGLPLTEKGSVHFFIWPVLSLIIVTLLGLYYTGKAACEGPCGAMDILSNADSATSLLWGSFAMVAVALTLVLATKTMTVEETESAIIQGMKQMMMATVILVLAWSIKSATEAVGTAEYVVGLAQRANVPGGIIPLIIFLTAMFISFTTGTSWGTFGILMPIAIPLAYKLAPNDPQVLFASIGAVFAGGIFGDHCSPISDTTIMSSMFSGSDHIDHVTTQIPYAVTAASVGIVLYILFALGIKSPVILLPVGLVLLIAAWYFLSEWYGKKYGVPHGRVPIYPTEISE”, with “failed”; and “MSDHPFSIQANLYLQLRHFIRLGMSKAEAIKLITYNNAKILGIEDKLGSLEKGKWASLVVWNGDPFNLENYPTHVFAEGELIHEANLLEHHHHHH”, with “failed”; and “MSDISKLIGAIVGSDDPVIIEFVLNIINKSGNLQEFIRNIQKLDAGISYEDSIKMYNAFLGKQEEEKVRNKVKSSPLSQKINQVLKDDVNLDDPVVTEFVLSILNKSKSITEFQEQLNLMQSGLDNETIFKIYQIASPPVMKEEVSVLPSTKIPAKIEAKIEEEVQKIESLDPSPVLHKVYEGKVRNITTFGCFVQIFGTRMKNCDGLVHISEMSDQRTLDPHDVVRQGQHIFVEVIKIQNNGKISLSMKNIDQHSGEIRKRNTESVEDRGRSNDAHTSRNMKNKIKRRALTSPERWEIRQLIASGAASIDDYPELKDEIPINTSYLTAKRDDGSIVNGNTEKVDSKLEEQQRDETDEIDVELNTDDGPKFLKDQQVKGAKKYEMPKITKVPRGFMNRSAINGSNAIRDHREEKLRKKREIEQQIRKQQSFDDPTKNKKDSRNEIQMLKNQLIVTEWEKNRMNESISYGKRTSLPISAQRQTLPVYAMRSELIQAVRDNQFLVIVGETGSGKTTQITQYLDEEGFSNYGMIGCTQPRRVAAVSVAKRVAEEVGCKVGHDVGYTIRFEDVTGPDTRIKYMTDGMLQREALLDPEMSKYSVIMLDEAHERTVATDVLFALLKKAAIKRPELKVIVTSATLNSAKFSEYFLNCPIINIPGKTFPVEVLYSQTPQMDYIEAALDCVIDIHINEGPGDILVFLTGQEEIDSCCEILYDRVKTLGDSIGELLILPVYSALPSEIQSKIFEPTPKGSRKVVFATNIAETSITIDGIYYVVDPGFAKINIYNARAGIEQLIVSPISQAQANQRKGRAGRTGPGKCYRLYTESAFYNEMLENTVPEIQRQNLSHTILMLKAMGINDLLKFDFMDPPPKNLMLNALTELYHLQSLDDEGKLTNLGKEMSLFPMDPTLSRSLLSSVDNQCSDEIVTIISMLSVQNVFYRPKDRQLEADSKKAKFHHPYGDHLTLLNVYTRWQQANYSEQYCKTNFLHFRHLKRARDVKSQISMIFKKIGLKLISCHSDPDLIRKTFVSGFFMNAAKRDSQVGYKTINGGTEVGIHPSSSLYGKEYEYVMYHSIVLTSREYMSQVTSIEPQWLLEVAPHFYKAGDAESQSRKKAKIIPLHNKFAKDQNSWRLSSIRQSRERALGIKR”, with “failed”.
Then “MSDKFNQFINRVLSHEGGYANHPKDPGGETNWGITKRTAQANGYNGSMRAMTREQAISIYRKAFWERYRADQMPEAVAFQFFDACVNHGYGNAARMLQRAAGVPDDGVIGAVSLKAINSLPENDLLLRFNAERLVFYTKLGTFTSFGKGWVRRVAQNLIHASADNTD”, with “not failed”; and “MSDKLFSIVTISFNQAQFLREAVESVLAQKGGDIEYIVVDPGSTDGSREILAEYRSAIDHLILEADHGPGDGLNKGFARANGRYGYFLNSDDFLLPGAIDIMRTLWQRHKNTDVLLCGAWMVDENRRPQRELRPSPVTLEKLLDGEAKIVQQGMSFRMDLFRKVGGFNVGNRTCWDYELLCDFLAAGAAVTQSEARLAAFRIHSASISGGIGGELATKRYLADLDSVYERLTGQKKKPEQRRRAVRLSKRLGSPSHVLLRMRELLAPWTLELRWQADHERKSRRLEHHHHHH”, with “failed”.
Regarding “MSDKPTIEQLLNNVSIESLNDMQEDSLAANAKASDVILLSPTGSGKTLGFLLPVFQQLSVSSNSIQALVLVPSRELALQIESVFKSLKTGFKVTCCYGGHPMDVEENNLAQSPALLIGTPGRIVDHINRRNINLDDVKTLVLDEFDKSLEMGFQEDMAIIIGRLTGIKKRILTSATQAIKIPDFTGMQSPVTLNYITGQASGLSVKTVLSDTKDKFDTLLRLLCQIGNESVIVFCNQRDEVENVCAYLTEHGIINNNFHGGLEQRYRESTLTKFRNGSTNVLVTTDLAARGLDIPDVKHVIHYQMPHKIDAFTHRNGRTARMGSTGNAYMLLHKDVLLPDYITSKPDILKLSDQKVKPLLPQWETLFISAGKKDKINKIDIVGFLSKKGLLEKDELGLIEVKDQFAYAAVKRNKVESVIKLVKEEKIKGRKVKIEVARETPKFEAE”, the protein production result is given as “failed”.
Then “MSDKQRVREQKHAWIYLFNLGFYILPMVLFPYQVWEIAVMVAALLVFIGLYYCCYSVPRQQMLWPILGMYIIACAVTPLNPGSIALFSYAGFFVGFAYNWRVALAAVAGIILTLATFHFGPGTSWDLFLPYGIVIVGTVSIFGRVERLRQQHAEEQERDAEEIERLATSVERERIARDLHDILGHTLSSIILKSDLAKAQLSKQRYDEASEQLVELSEIARESLSQVRQSVSGYKHGGLQLELRRLEQRLTDGGFSTRITGTPPIIDERRETSLVLAITELVTNIIRHSNGQQCLIHFDETANTYCIKVVDNGRCHDVSVGNGLSGVELRIQELGGSMSISTNKGCEVALFLPKLAEQQP”, with “failed”; and “MSDKRDARFYQEVLDICLTAGRLMIEGGSEMYRVEDTMLRIARNADINDPRVFATPTCVFMSLDGGKLSQMKQIRDRNINLELVDRVNELSREFATKKIDLSELKNRIIEVANAPSFPMWMQIIGAAVLSATLMVLFMDDYDWVDFPGAALVGAIGFWAYYEFKKYTKVRFLSELIAAMIMGVLALGLNYLYPKMIIDNILIGALMTLVPGLAMTNALRDLFMGDLLSGIVRMCEAILSALALGGGVGLVLKFVGG”, with “failed”.
On to “MSDLGDFADHGRDDDERGGDDDPAPADDDFDRPTLEATGSDDGLGALAVSEGLRIHEDGQETALKAYVTAGNRAAVRLGTYLVAPYPGGETLFCKITGLEYVQAFESDDATEIHARRAMRSDGVDEADYKFLAELDPVAVLSDEGDDITRRMPDRVPKPETVVRAADDAAEIKAGLKIPADGVFLGHLSVGGEKVRTAADPPTIDYRVKDGYEAGDPLVFRHTLIAGGTGSGKTHAAKNVLRQYLHEDRRYPVDSGGPERRMAVVQFDPQDEYAQMHDDNPDADASDRRQWETQGLAYGGHDDTVAFVPTVGSASYAADHHAAEQVAFTVPFSMVRDNPWLVASSGLNDNQYGALHLLLDRFFGQYGESGTYREFCAFLDDPALKEELDESGRVHEATYEAVLRRVNGMPNGLFDQDARSITALVEDREFVQPGRLSVVPTYHISNSRAAETVVLAVSSLLVDQKLSNDPRYDAIKRTPLLVGMDEAHNFLSDADSVQARKVVGKFTEAAKQGRKERLGLFLITQDPQDIAGPVFKQVNTTVVLNLGDEDAIQAVNIPATLQSKVPYMNTGQMVVYSPDNSEPVEVQGLATCVTRHGRD”, for which the protein production result was “failed”.
Consider “MSDLINIQKKLLPDVLMIMQKRYQILRSIYFSEPVGRRTLAGMLGMSERVLRGEVEFLKAQGLVEIASSGMTVTKEGLVVFRDLENVMNQLSGLHSMEEQLAKKLQIKKCLVVQGDSDDTPWVREEMGRVAVEQLDMALTEKRNIVAVMGGSTMATVAEMMTTDFAKGRELLFVPGRGGIGEDLDNQANTICDKMATKTNTKHRVLYVPEQLGEEAYRSLLKEPAIQEGLRLVQSANAIILGIGDALAMAKRRHTGEDVLEKIIRRKAVGEAFGYYFDEQGEVVHKVPTFGLQFEDLAQIPHIIAVAGGTSKAKAIKSYMKSAPKNTILITDEGAAKSLLKGSNTLLK”, for which the protein production entry was “failed”.
Turning to “MSDLQKLQRFSTCDISDGLLNVYNIPTGGYFPNLTAISPPQNSSIVGTAYTVLFAPIDDPRPAVNYIDSVPPNSILVLALEPHLQSQFHPFIKITQAMYGGLMSTRAQYLKSNGTVVFGRIRDVDEHRTLNHPVFAYGVGSCAPKAVVKAVGTNVQLKILTSDGVTQTICPGDYIAGDNNGIVRIPVQETDISKLVTYIEKSIEVDLLVSEDIKNGIPAKQAQNDRRSVLKKYI”, the protein production entry is “not failed”.

Values taken from a protein production outcome set (Wang et al. 2014).
